Results from US20250042968A1 (UNIVERSITY OF MIAMI, published 2025).

Target: T1, EphA2 (UniProt P29317 25-534, limits assumed)
T1 construct: also called EphA2 receptor
Test: biolayer interferometry (ForteBio Octet)

T1 sequence (P29317 25-534 limits assumed): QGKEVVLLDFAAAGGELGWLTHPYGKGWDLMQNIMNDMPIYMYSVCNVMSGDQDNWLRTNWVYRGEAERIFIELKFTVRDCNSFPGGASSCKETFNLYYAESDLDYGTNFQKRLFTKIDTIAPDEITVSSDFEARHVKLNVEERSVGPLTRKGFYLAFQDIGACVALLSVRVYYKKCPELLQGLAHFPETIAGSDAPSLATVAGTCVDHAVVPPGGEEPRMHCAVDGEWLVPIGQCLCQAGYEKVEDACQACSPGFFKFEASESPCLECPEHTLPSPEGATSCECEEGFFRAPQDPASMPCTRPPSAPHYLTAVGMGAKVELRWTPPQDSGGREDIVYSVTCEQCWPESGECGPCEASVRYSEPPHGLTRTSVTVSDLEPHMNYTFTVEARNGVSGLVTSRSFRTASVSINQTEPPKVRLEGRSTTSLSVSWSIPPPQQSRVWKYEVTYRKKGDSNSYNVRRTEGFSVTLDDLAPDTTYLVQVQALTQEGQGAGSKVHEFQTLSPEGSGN

B1: SNEW (peptide)
peptide: SNEWIQPRLPQH
notes: Known EphB2 targeting peptide, tested alongside the xEFN peptides as a comparator
binding result: no binding
